Laboratory results taken from patent US20130244255A1, “ANTIBODIES DIRECTED TO GPNMB AND USES THEREOF” (priority 2006, published 2013).

Target: T1, GPNMB (Homo sapiens, UniProt Q14956)
T1 construct: we cloned the human CG56972 extracellular domain (ECD; aa 23-480); made in house; host or cells: HEK 293 cells
T1 sequence (Q14956 23-492): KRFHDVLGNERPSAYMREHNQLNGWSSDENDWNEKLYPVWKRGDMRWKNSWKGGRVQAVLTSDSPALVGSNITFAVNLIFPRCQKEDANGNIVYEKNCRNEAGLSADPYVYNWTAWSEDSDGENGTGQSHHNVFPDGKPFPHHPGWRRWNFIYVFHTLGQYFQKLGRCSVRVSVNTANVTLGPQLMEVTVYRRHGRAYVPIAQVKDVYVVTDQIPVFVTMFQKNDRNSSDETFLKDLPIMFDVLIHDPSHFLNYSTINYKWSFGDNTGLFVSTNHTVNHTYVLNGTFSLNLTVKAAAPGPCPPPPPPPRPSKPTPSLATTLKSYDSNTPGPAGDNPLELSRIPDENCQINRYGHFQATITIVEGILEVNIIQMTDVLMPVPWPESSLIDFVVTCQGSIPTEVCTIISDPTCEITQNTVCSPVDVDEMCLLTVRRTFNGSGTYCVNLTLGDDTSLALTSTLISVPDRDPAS
Assay: ELISA of hybridoma supernatants for binding to GPNMB
Method: After 14 days of culture, hybridoma supernatants were screened for GPNMB specific monoclonal antibodies. In the Primary screen, the ELISA plates (Fisher, Cat. No. 12-565-136) were coated with 50 μL/well of GPNMB (1 μg/mL) in Coating Buffer (0.1 M Carbonate Buffer, pH 9.6, NaHCO3 8.4 g/L), then incubated at 4° C. overnight. After incubation, the plates were washed with Washing Buffer (0.05% Tween 20 in PBS) three times. 200 μL/well Blocking Buffer (0.5% BSA, 0.1% Tween 20, 0.01% Thimerosal in 1×PBS) were added and the plates were incubated at room temperature for 1 h. After incubation, the plates were washed with Washing Buffer three times. Aliquots (50 μL/well) of hybridoma supernatants and positive and negative controls were added, and the plates were incubated at room temperature for 2 h. The positive control used throughout was serum from the relevant GPNMB immunized XenoMouse® mouse and the negative control was serum from the KLH-immunized relevant strain of XenoMouse® mouse. After incubation, the plates were washed three times with Washing Buffer. 100 μL/well of detection antibody goat anti-huIgGfc-HRP (Caltag, Cat. No. H10507, using concentration was 1:2000 dilution) was added and the plates were incubated at room temperature for 1 hour. After incubation, the plates were washed three times with Washing Buffer. 100 μl/well of TMB (BioFX Lab. Cat. No. TMSK-0100-01) was added, and the plates were allowed to develop for about 10 minutes (until negative control wells barely started to show color). 50 μl/well stop solution (TMB Stop Solution (BioFX Lab. Cat. No. STPR-0100-01) was then added and the plates were read on an ELISA plate reader at a wavelength of 450 nm.
Hybridoma supernatants were screened for binding to GPNMB by ELISA as described above in Example 2.

CR011: fully human monoclonal antibody that specifically binds to GPNMB; VH SEQ ID NO: 20, VL SEQ ID NO: 29
Avg OD (antibody at 12.3 ng/mL): 0.168
Avg OD (antibody at 37 ng/mL): 0.381
Avg OD (antibody at 111 ng/mL): 0.701
Avg OD (antibody at 333 ng/mL): 0.902
Avg OD (antibody at 1 μg/mL): 1.051
Avg OD (antibody at 3 μg/mL): 1.159
